# B1: GST-OsGSK2 (enzyme)
# chain: MDQPAPAPEPMLLDAQPPAAVACDKKQQEGEAPYAEGNDAVTGHIISTTIGGKNGEPKRTISYMAERVVGTGSFGIVFQAKCLETGETVAIKKVLQDRRYKNRELQLMRAMDHPNVISLKHCFFSTTSRDELFLNLVMEYVPETLYRVLKHYSNANHRMPLIYVKLYMYQLFRGLAYIHTVPGVCHRDVKPQNVLVDPLTHQVKLCDFGSAKTLVPGEPNISYICSRYYRAPELIFGATEYTTSIDIWSAGCVLAELLLGQPLFPGESAVDQLVEIIKVLGTPTREEIRCMNPNYTEFRFPQIKAHPWHKVFHKRMPPEAIDLASRLLQYSPSLRCTALDACAHPFFDELREPNARLPNGRPFPPLFNFKHELANSSQELISRLIPEHVRRQATHNFFNTGS
# Target: MBP-OsMYC2 (rice, UniProt Q336P5 1-699)
# Assay: SPR
# Sequence of MBP-OsMYC2 (Q336P5 whole entry): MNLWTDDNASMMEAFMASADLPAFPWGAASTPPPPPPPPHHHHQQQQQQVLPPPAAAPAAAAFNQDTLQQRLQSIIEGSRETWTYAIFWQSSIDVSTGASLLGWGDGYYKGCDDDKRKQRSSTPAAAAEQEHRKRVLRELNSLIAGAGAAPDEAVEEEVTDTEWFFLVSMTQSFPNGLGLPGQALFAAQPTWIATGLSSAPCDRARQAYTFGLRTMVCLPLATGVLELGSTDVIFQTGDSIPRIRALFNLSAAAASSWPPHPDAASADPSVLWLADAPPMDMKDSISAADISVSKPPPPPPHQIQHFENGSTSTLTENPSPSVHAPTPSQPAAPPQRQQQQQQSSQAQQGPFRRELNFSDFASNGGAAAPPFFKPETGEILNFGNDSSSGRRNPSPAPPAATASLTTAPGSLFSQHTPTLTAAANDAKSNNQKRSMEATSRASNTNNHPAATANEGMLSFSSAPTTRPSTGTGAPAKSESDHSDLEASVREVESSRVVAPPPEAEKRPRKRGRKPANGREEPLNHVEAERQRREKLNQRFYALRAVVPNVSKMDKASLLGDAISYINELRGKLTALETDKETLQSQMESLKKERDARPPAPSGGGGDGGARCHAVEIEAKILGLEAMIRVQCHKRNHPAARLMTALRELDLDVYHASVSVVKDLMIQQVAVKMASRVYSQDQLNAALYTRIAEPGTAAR
binder,measurement,value
B1,Kd,40.4 nM

# Reference: PMC7485985 (2020)
